Results on 26 sequences are retold here after the supplement of paper PMC9170038.

In this data set the test system is MS2 coat protein. Description: apparent KD of MS2 coat protein; designed switch direction (-1 OFF switch, 1 ON switch): 1; higher = weaker reporter binding. The essentials:
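Normalised cluster fluorescence was curve-fitted, and each design's median over clusters is its apparent KD. Before this, SNAP-549-labelled MS2 coat protein was titrated from 0.7 or 1.5 nM, doubling to 3 µM, over RNA switches transcribed on Illumina chips by stalled E. coli RNA polymerase. Titrations had no input, 200 uM small-molecule ligand, or an oligonucleotide input, and steps lasted 0.8–1.5 h (lowest) to 10–20 min (highest).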

Setting [1] is: input ligand: microRNA oligo, concentration not stated.
The mark [2] stands for this setting: Eterna round: R95, input ligand: FMN 200 uM.
[3] abbreviates: Eterna round: R95, input ligand: microRNA oligo, concentration not stated.
Setting [4] is: Eterna round: R95, input ligand: none.

For the sequence “ACAUGAGACGGAGGAUAUCUUGUACCUACAUGUGACAUGAGGAUCACCCAUGUGGUAAGUAUGAUAGAGAAGGCCGAGAUAUGU [Equivalance 57 - Jieux - Same State NG 2] (Eterna round: R96, puzzle: Same State NG 2)”, the “apparent KD of MS2 coat protein” value runs as follows: (input ligand: FMN 200 uM) 16.1 nM; under setting [1], 15 nM; (input ligand: none) 25.4 nM.

For the sequence “ACAUGAGACUGAGGAUAUGUUGUACCUACAUGUGACAUGAGGAUCACCCAUGUGGUAAGUAUGAUACAGAAGGCAGAGAUAUGU [Equivalance 63 - Jieux - Same State NG 2] (Eterna round: R96, puzzle: Same State NG 2)”, the “apparent KD of MS2 coat protein” value (input ligand: FMN 200 uM) was 14.2 nM, the “apparent KD of MS2 coat protein” value under setting [1] amounted to 14.5 nM and the “apparent KD of MS2 coat protein” value (input ligand: none) amounted to 22.1 nM.

For “ACAUGAGAUCUAGGAUAUAUUGUACCUACAUGUGACAUGAGGAUCACCCAUGUGGUAAGUAUGACAUAGAAGGAGAAGAUAUGU [Equivalance 95 - Jieux - Same State NG 2] (Eterna round: R96, puzzle: Same State NG 2)”, under setting [1], the “apparent KD of MS2 coat protein” value stood at 53.9 nM.

“ACAUGAGAUGGAGGAUAUGUUGUACCUACAUGUGACAUGAGGAUCACCCAUGUGGUAAGUAUGAUACAGAAGGCCAAGAUAUGU [Equivalance 59 - Jieux - Same State NG 2] (Eterna round: R96, puzzle: Same State NG 2)”: the “apparent KD of MS2 coat protein” value (input ligand: FMN 200 uM) amounted to 16.5 nM, the “apparent KD of MS2 coat protein” value under setting [1] is 15.8 nM and the “apparent KD of MS2 coat protein” value (input ligand: none) stood at 27.2 nM.

On to “ACAUGAGAUUGAGGAUAUAUUGUACCUACAUGUGACAUGAGGAUCACCCAUGUGGUAAGUAUGACAUAGAAGGCAGAGAUAUGU [Equivalance 84 - Jieux - Same State NG 2] (Eterna round: R96, puzzle: Same State NG 2)”, for which the “apparent KD of MS2 coat protein” value is, setting by setting: (input ligand: FMN 200 uM) 67.7 nM; under setting [1], 107 nM; (input ligand: none) 75.3 nM.

Turning to “ACAUUUAGCUCUUGCACAUGAGGAUCACCCAUGUUCAGUUCACAGGAUAUCUAGUCAAACGGAUCGGAGAAGGGUGGCAGGAGC [Erquzaa] (Eterna round: R96, puzzle: Same State NG 3)”, the “apparent KD of MS2 coat protein” value stood at 86.3 nM (input ligand: FMN 200 uM), 185 nM under setting [1] and 294 nM (input ligand: none).

As to “ACCCAAAGUAUAUGGGAACAAGCUUUUUAACAUGAGGAUCACCCAUGUACUCGUCUUGUAAGCAGUCGAAAGACUGC [Sensor 100 - 1] (puzzle: Sensor for hsa-mir-208a)”, the “apparent KD of MS2 coat protein” value under setting [2] was determined as 312 nM, the “apparent KD of MS2 coat protein” value under setting [3] was found to be 17.4 nM and the “apparent KD of MS2 coat protein” value under setting [4] came to 368 nM.

In the case of “ACGCAGCUGGGUGAGGAUAUCGGUGGUAAAACAUGAGGAUCACCCAUGUCCGAAGCUCGGACCUCCGAGAAGGCGCCCGGCUGCG [Soinraesar Omei Mod 1] (puzzle: Same State 2)”, the “apparent KD of MS2 coat protein” value is, setting by setting: under setting [2], 5.47 nM; under setting [3], 5.25 nM; under setting [4], 5.11 nM.

Consider “ACGUGGACGAAAGUCCACGAAUAAGACGAACAUGAGGAUCACCCAUGUGAGGCGAGCUUUUUGUUCGUCUUAUAAAA [Mat - Sensor - Mod - D116] (Eterna round: R96, puzzle: Sensor for hsa-mir-208a)”, for which the “apparent KD of MS2 coat protein” value was found to be 73.1 nM (input ligand: FMN 200 uM), 32.1 nM under setting [1] and 22.6 nM (input ligand: none).

Regarding “ACUCUCACAGUAGGAUAUGUAGGAUAUGCCUACAUGAGGAUCACCCAUGUAAACAUGGCAGAAGGACAGAAGGACUUACAUUGG [pwkr ssNG2 2FMN + 1F5.2] (Eterna round: R96, puzzle: Same State NG 2)”, the “apparent KD of MS2 coat protein” value was 31.7 nM (input ligand: FMN 200 uM), 197 nM under setting [1] and 408 nM (input ligand: none).

As to “ACUUGCCGCACAGGAUAUGGGUGCCUGUACAUGAGGAUCACCCAUGUUAAGGGACGGAUUACGAACCAGAAGGGUGAGGCGGGC [Tigeti] (Eterna round: R96, puzzle: Same State NG 2)”, the “apparent KD of MS2 coat protein” value runs as follows: (input ligand: FMN 200 uM) 124 nM; under setting [1], 418 nM; (input ligand: none) 750 nM.

Regarding “AGAAGACAUGAGGAUCACCCAUGUACAUAAUGAGGAGAAUGGGAGGAUAUGUAGAGAGAGAGGGAGCAGAAGGUCCAGUAUGAA [Default title] (Eterna round: R96, puzzle: Same State NG 3)”, the “apparent KD of MS2 coat protein” value was found to be 98.9 nM (input ligand: FMN 200 uM), 99.2 nM under setting [1] and 148 nM (input ligand: none).

Turning to “AGACUACAACCUCGAACAUGAGGAUCACCCAUGUAAAGAUCCAAGGAUAUGGACAGGCCGAGCUACCAGAAGGUGGAAAGAGCC [Eternabot solution 7] (Eterna round: R96, puzzle: Same State NG 3)”, the “apparent KD of MS2 coat protein” value came to 40.9 nM (input ligand: FMN 200 uM), 38.4 nM under setting [1] and 69.8 nM (input ligand: none).

Take “AGAGAACAUGAGGAUCACCCAUGUGGGAGAGGCAUAGGAUAUAGAGGAGAGAGCGAGGAACUAGAAGGAUGAUGGA [JR_SS1_Sub080] (puzzle: Same State 1)”: the “apparent KD of MS2 coat protein” value reads like this: under setting [2], 47.3 nM; under setting [3], 70.7 nM; under setting [4], 91.3 nM.

For the sequence “AGAGGAGGAGCAGGAUAUUCGAAGAAGAACGUGGAAGAAGGGUUCAUGCGAUGACAUGAGGAUCACCCAUGUACCGCGCGAGGA [AK SSNG1-V2-11] (Eterna round: R96, puzzle: Same State NG 1)”, the “apparent KD of MS2 coat protein” value is 50 nM (input ligand: FMN 200 uM), 42.9 nM under setting [1] and 67.6 nM (input ligand: none).

In the case of “AGAUCAUGACGAGGAUAUGGUACAUGAGGAUCACCCAUGUAUGUACCACGACGGAAACGUCGAAUCCAGAAGGCGUCGUGAUCA [Mat - Same State NG 2 - JL mod - D23] (Eterna round: R96, puzzle: Same State NG 2)”, the “apparent KD of MS2 coat protein” value reads like this: (input ligand: FMN 200 uM) 47.5 nM; under setting [1], 100 nM; (input ligand: none) 127 nM.

For the sequence “AGAUCAUGACGAGGAUAUGGUACAUGAGGAUCACCCAUGUAUGUACCAUAACGCGUACGACGAAACCAGAAGGCGUCGUGAUCA [Mat - Same State NG 2 - JL mod - D41] (Eterna round: R96, puzzle: Same State NG 2)”, the “apparent KD of MS2 coat protein” value (input ligand: FMN 200 uM) came to 9.06 nM, the “apparent KD of MS2 coat protein” value under setting [1] was 12.2 nM and the “apparent KD of MS2 coat protein” value (input ligand: none) turned out to be 20.7 nM.

Regarding “AGAUGGUGUGGAAAGGAUAUACUGUUGAGGACAUGAGGAUCACCCAUGUGGUAGAGGAGGUAAGGGUAGAAGGUUCGGGAUUGGU [JR_SS@_Sub020] (puzzle: Same State 2)”, the “apparent KD of MS2 coat protein” value turned out to be 29.9 nM under setting [2], 32.3 nM under setting [3] and 41.6 nM under setting [4].

As for “AGAUGUUAAUUAGGAUAUGGUCACAUGAGGAUCACCCAUGUAACGAAGAUACGAUGUGGUCAAGACUAGAAGGGAUCGCUAACA [SameState NG2 #73] (Eterna round: R96, puzzle: Same State NG 2)”, the “apparent KD of MS2 coat protein” value amounted to 40.5 nM (input ligand: FMN 200 uM), 47.4 nM under setting [1] and 55.3 nM (input ligand: none).

Turning to “AGCACUUCAGAAGGAUAUGAGAUGCUAAGCAUCUUAGAAGGUCUGCCGUAAAGAAACGUCCACAUGAGGAUCACCCAUGUUGCA [Eternabot solution 28] (Eterna round: R96, puzzle: Same State NG 1)”, the “apparent KD of MS2 coat protein” value is 20.9 nM (input ligand: FMN 200 uM), 21.9 nM under setting [1] and 26 nM (input ligand: none).

As to “AGCGAGAUAGGCAAGGAUAUGUAGUUUGGCACAUGAGGAUCACCCAUGUCAAUCCAUUUUUUGGAACAGAAGGUGCAUUCUCUUU [ak fourth] (puzzle: Same State 2)”, the “apparent KD of MS2 coat protein” value is 33.4 nM under setting [2], 12.2 nM under setting [3] and 19.5 nM under setting [4].

Consider “AGCGUCCACACAGGAUAUCACCUGCACUGCAGGUGAGAAGGGUGACCGGUGCGCAAUAACGACAUGAGGAUCACCCAUGUAAAA [Vegea] (Eterna round: R96, puzzle: Same State NG 1)”, for which the “apparent KD of MS2 coat protein” value reads like this: (input ligand: FMN 200 uM) 775 nM; under setting [1], 38.3 nM; (input ligand: none) 143 nM.

For “AGCUAGUACCGAGGAUAUACAUACAUGAGGAUCACCCAUGUAUACAUGAUUUAAUGAGACUACAUGUAGAAGGCGGUACUAGCA [JL SSNG2 1.23] (Eterna round: R96, puzzle: Same State NG 2)”, the “apparent KD of MS2 coat protein” value is, setting by setting: (input ligand: FMN 200 uM) 22 nM; under setting [1], 68.6 nM; (input ligand: none) 79.1 nM.

For “AGCUAUUAAUCAGGAUAUGGUGACAUGAGGAUCACCCAUGUAUUGAUGAUUAAAUGUGGUCAAUACCAGAAGGGAUUACUAACA [SameState NG2 #51] (Eterna round: R96, puzzle: Same State NG 2)”, the “apparent KD of MS2 coat protein” value (input ligand: FMN 200 uM) turned out to be 44.6 nM, the “apparent KD of MS2 coat protein” value under setting [1] was 401 nM and the “apparent KD of MS2 coat protein” value (input ligand: none) worked out at 537 nM.

As to “AGCUAUUACGAAGGAUAUAGGGACAUGAGGAUCACCCAUGUGUACAUGAGUAAAUGUGAUCACGUCUAGAAGGUUGUACUAACA [SameState NG2 #36] (Eterna round: R96, puzzle: Same State NG 2)”, the “apparent KD of MS2 coat protein” value runs as follows: (input ligand: FMN 200 uM) 474 nM; under setting [1], 383 nM; (input ligand: none) 430 nM.

Take “AGGAUGAGAACAGGAUAUUCGACAUGAGGAUCACCCAUGUGGCAAGUAGGUGACGAUGAAUGACGGAAGAAGGGUUACGAGGAG [Same State NG2] (Eterna round: R96, puzzle: Same State NG 2)”: the “apparent KD of MS2 coat protein” value runs as follows: (input ligand: FMN 200 uM) 375 nM; under setting [1], 197 nM; (input ligand: none) 199 nM.
